# Reference: IntAct's records for PubMed 15886098
# B1: Tyrosine-protein kinase ABL2 (Homo sapiens), P42684 (parent)
# chain: MGQQVGRVGEAPGLQQPQPRGIRGSSAARPSGRRRDPAGRTTETGFNIFTQHDHFASCVEDGFEGDKTGGSSPEALHRPYGCDVEPQALNEAIRWSSKENLLGATESDPNLFVALYDFVASGDNTLSITKGEKLRVLGYNQNGEWSEVRSKNGQGWVPSNYITPVNSLEKHSWYHGPVSRSAAEYLLSSLINGSFLVRESESSPGQLSISLRYEGRVYHYRINTTADGKVYVTAESRFSTLAELVHHHSTVADGLVTTLHYPAPKCNKPTVYGVSPIHDKWEMERTDITMKHKLGGGQYGEVYVGVWKKYSLTVAVKTLKEDTMEVEEFLKEAAVMKEIKHPNLVQLLGVCTLEPPFYIVTEYMPYGNLLDYLRECNREEVTAVVLLYMATQISSAMEYLEKKNFIHRDLAARNCLVGENHVVKVADFGLSRLMTGDTYTAHAGAKFPIKWTAPESLAYNTFSIKSDVWAFGVLLWEIATYGMSPYPGIDLSQVYDLLEKGYRMEQPEGCPPKVYELMRACWKWSPADRPSFAETHQAFETMFHDSSISEEVAEELGRAASSSSVVPYLPRLPILPSKTRTLKKQVENKENIEGAQDATENSASSLAPGFIRGAQASSGSPALPRKQRDKSPSSLLEDAKETCFTRDRKGGFFSSFMKKRNAPTPPKRSSSFREMENQPHKKYELTGNFSSVASLQHADGFSFTPAQQEANLVPPKCYGGSFAQRNLCNDDGGGGGGSGTAGGGWSGITGFFTPRLIKKTLGLRAGKPTASDDTSKPFPRSNSTSSMSSGLPEQDRMAMTLPRNCQRSKLQLERTVSTSSQPEENVDRANDMLPKKSEESAAPSRERPKAKLLPRGATALPLRTPSGDLAITEKDPPGVGVAGVAAAPKGKEKNGGARLGMAGVPEDGEQPGWPSPAKAAPVLPTTHNHKVPVLISPTLKHTPADVQLIGTDSQGNKFKLLSEHQVTSSGDKDRPRRVKPKCAPPPPPVMRLLQHPSICSDPTEEPTALTAGQSTSETQEGGKKAALGAVPISGKAGRPVMPPPQVPLPTSSISPAKMANGTAGTKVALRKTKQAAEKISADKISKEALLECADLLSSALTEPVPNSQLVDTGHQLLDYCSGYVDCIPQTRNKFAFREAVSKLELSLQELQVSSAAAGVPGTNPVLNNLLSCVQEISDVVQR
# partner: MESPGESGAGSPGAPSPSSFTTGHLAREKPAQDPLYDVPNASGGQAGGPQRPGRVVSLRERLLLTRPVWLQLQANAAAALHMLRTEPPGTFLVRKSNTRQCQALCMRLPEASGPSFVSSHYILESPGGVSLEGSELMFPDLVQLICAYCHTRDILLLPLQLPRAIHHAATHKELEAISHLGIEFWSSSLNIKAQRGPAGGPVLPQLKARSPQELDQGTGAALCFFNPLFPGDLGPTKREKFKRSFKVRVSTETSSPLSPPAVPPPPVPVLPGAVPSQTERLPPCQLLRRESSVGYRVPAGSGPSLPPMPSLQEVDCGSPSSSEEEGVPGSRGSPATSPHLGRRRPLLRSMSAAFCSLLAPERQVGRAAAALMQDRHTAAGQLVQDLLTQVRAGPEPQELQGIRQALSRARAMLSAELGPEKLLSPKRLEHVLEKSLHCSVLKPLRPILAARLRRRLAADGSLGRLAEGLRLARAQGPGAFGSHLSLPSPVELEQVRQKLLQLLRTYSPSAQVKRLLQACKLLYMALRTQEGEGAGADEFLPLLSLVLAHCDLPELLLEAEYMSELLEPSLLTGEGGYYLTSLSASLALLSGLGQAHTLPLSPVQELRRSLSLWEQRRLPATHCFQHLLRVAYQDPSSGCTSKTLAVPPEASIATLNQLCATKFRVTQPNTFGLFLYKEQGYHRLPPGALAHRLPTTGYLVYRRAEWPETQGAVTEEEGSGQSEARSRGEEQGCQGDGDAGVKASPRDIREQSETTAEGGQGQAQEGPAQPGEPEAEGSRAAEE
# B2: Ras and Rab interactor 1 (Homo sapiens), Q13671 (parent)
# chain: B1 partner
# Variants of: B1
# Conditions: with rin1_human RIN1, Q13671
row,Variant,effect of a mutation on the interaction
1,K317R,decreasing interaction

# Variants of: B2
# Conditions: with abl2_human ABL2, P42684
row,Variant,effect of a mutation on the interaction
1,Y36F;Y121F;Y148F,decreasing interaction
